Experimental data taken from patent publication US20150232852.
pKd: −log10 of the molar value.

What was measured:
[1] = biological target: D-glucagon (all D-amino acids), biotinylated (Homo sapiens) (UniProt P01275); assay: pulldown; conditions: D-DNA; 37 C, 1 mM Mg, 1 mM Ca, pH 7.4; direct pull-down
[2] = biological target: glucagon, L-form, biotinylated (glucagon1-29-AEEAc-AEEAc-biotin) (Homo sapiens) (UniProt P01275); assay: pulldown; conditions: L-DNA; 37 C, 1 mM Mg, 1 mM Ca, pH 7.4; direct pull-down, spiegelmer
Sequence of glucagon, L-form, biotinylated (glucagon1-29-AEEAc-AEEAc-biotin) (Homo sapiens) (P01275 53-81): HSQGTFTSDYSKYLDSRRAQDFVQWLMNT

Row | Sequence | pKd [1] | pKd [2]
1 | CGACTCGAGAGGAAAGGTTGGTAAAGGTTCGGTTGGATTCACTCGAGTCG [259-H6-001 (aptamer)] | 7.48 | 
2 | GCAGTGGGGAAATGGGAGGGCTAGGTGGAAGGAATCTGAGCTACTGC [257-E1-001 (aptamer)] | 6.86 | 
3 | GCAGTGGGGAAATGGGAGGGCTAGGTGGAAGGAATCTGAGCTACTGC [257-E1-001 (spiegelmer)] |  | 6.75
